Laboratory results reported in US20250236667A1, “ANTIBODIES TO MUTANT CALRETICULIN AND USES THEREOF” (CENTRAL ADELAIDE LOCAL HEALTH NETWORK INC, priority 2021, published 2025).

Key:
Format in all cases: cell-based, human
[1] = tested on: TF-1 TpoR CALR^del61 cells; assay: Flow cytometry of 4D7 binding to the cell surface, mutant CALR cells; details: PE-conjugated 4D7; vs unstained or isotype-PE control
Description: TF-1 cells expressing TpoR and mutant CALR were incubated for 30 minutes 4D7 conjugated to phycoerthryin (PE) (Abcam, #AB102918) or IgG2a PE isotype control (ThermoFisher #12-4321-42) at the concentrations specified after pre-incubation with mouse serum. Cells were washed 1 × before analysis on a CytoFLEX (Beckman Coulter).

[2] = tested on: ruxolitinib-resistant TF-1 TpoR CALR^del61 cells; assay: Cell growth in liquid culture, trypan blue exclusion; details: 20 μg/mL, 96 hours
Description: (§1) A. Graph showing effect of ruxolitinib on megakaryocyte differentiation at 50 and 100 nM in healthy CD34+ cells (n=4). B. Effect of 4D7 on TPO-dependent megakaryocyte differentiation of healthy CD34+ cells cultured with 20 μg/mL 4D7 or IgG control (n=4). C. Total numbers of hematopoietic colonies plated in MethoCult from healthy cord blood after treatment with 4D7 or IgG. CFU-GM, colony forming unit-granulocyte macrophage: BFU-E, blast forming unit-erythroid: CFU-GEMM, colony forming unit granulocyte, erythroid, monocyte, megakaryocyte (n=3).D. CD41+megakaryocyte colonies from healthy CD34+ cells observed on collagen matrix after 4D7 treatment. Colonies were cultured in TPO, SCF. IL-9 and IL-3. E. Number of megakaryocyte colony forming units observed in MegaCult assay after treatment of healthy cord blood CD34+ cells with either IgG or 4D7 (n=3). F. Western blot showing signalling in ruxolitinib-resistant TF-1 TpoR CALR^del61 compared to ruxolitinib sensitive TF-1 TpoR CALR^del61 cells after treatment with 100 nM ruxolitinib for 16 hours or 30 minutes and blotted for phospho-STAT5, total STAT5, phospho-ERK, total ERK and actin as indicated. Ruxolitinib-sensitive cells were non-viable after 16 hours of treatment. […] Cells counted using Trypan Blue exclusion with replicate wells (n=3). […]

[3] = tested on: ruxolitinib-resistant TF-1 TpoR CALR^del61 cells; assay: Colony formation in MethoCult; details: after 72 hours of treatment
Description: as §1

B1: 4D7: rat monoclonal IgG2a antibody against the mutant CALR neoepitope; VH SEQ ID NO: 5, VL SEQ ID NO: 7 (antibody, listed as Rattus rattus, V domains shown)
VH: QVQLQQSGAELAKPGSSVKISCKASGYTFTNYDMSWIKQRPGQALEWIGAINPGNGVTDYNEKFRGKATLTVDKSSSTAFMQLSSLTPEDTAVYHCAREYRDNYGYFDYWGQGVMVTVSS
VL: DIVLTQTPVSLSVTLGDQASISCRSSQSLEYSDGYTYLDWFLQKPGQSPQLLIYEVSSRFSGVPDRFIGRGSGTDFTLKISRVEPEDLGVYYCFQATHDPFTFGSGTKLEIK
- binding to the cell surface [1]: Specific binding
- inhibitory activity on cell growth in liquid culture [2]: strong inhibitory activity
- inhibitory activity on colony formation [3]: strong inhibitory activity
